Test results from paper PMC8136665.
pKd: −log10 of the molar value. Values joined by “and” are separate entries in the source; they are usually repeats but may differ in a detail not shown here. Identical values can stand only once.

Key:
[1] = molecular target: SARS-CoV-2 spike (S) glycoprotein ectodomain, prefusion-stabilised trimer (SARS-CoV-2) (UniProt P0DTC2); assay: SPR
[2] = molecular target: SARS-CoV-2 spike (S) glycoprotein ectodomain, prefusion-stabilised trimer (SARS-CoV-2) (UniProt P0DTC2); assay: negative-stain electron microscopy

## DC-SIGN extracellular domain (Dendritic Cell-Specific Intercellular adhesion molecule-3-Grabbing Non-integrin) (from UniProt Q9NNX6 66-404) (domain or fragment)
[1]
  pKd: 4.92 and 5.36
[2]
  stoichiometry N: 1 and > 2

## L-SIGN extracellular domain (liver/lymph node-specific intracellular adhesion molecules-3 grabbing non-integrin) (from UniProt Q9H2X3 78-399) (domain or fragment)
[1]
  pKd: 5.74 and 5.78

## MGL (Macrophage galactose lectin) extracellular domain (domain or fragment)
[1]
  pKd: 5.15
